# Measured values from IntAct's records for PubMed 12813456.
# B1: Protein E7 (Human papillomavirus type 16), P03129 (parent)
# chain: MHGDTPTLHEYMLDLQPETTDLYCYEQLNDSSEEEDEIDGPAGQAEPDRAHYNIVTFCCKCDSTLRLCVQSTHVDIRTLEDLLMGTLGIVCPICSQKP
# Variants of: B1
# Conditions: with kat2b_human KAT2B
row,Variant,effect of a mutation on the interaction
1,L67A,decreasing interaction strength
